Molecular target: AtWRKY50 DBD_K26Q (Arabidopsis thaliana, UniProt Q8VWQ5 =M+99-173, K123Q;internal_change)
Assay: DPI-ELISA

B1: W2 (dsDNA)
DNA 1: AAATTATTCAGCCATCAAAAGTTGACCAATAAT
DNA 2: ATTATTGGTCAACTTTTGATGGCTGAATAATTT
B1: binds.

— article PMC3834811
